Laboratory results as given in the supplement of paper PMC7125110.
± gives the standard error. Fewer inactive variants are shown than the library holds.

B1: glmS ribozyme (parent)
chain: AUAAAAGCGCCAGAACUACAGAAAUGUAGUUGACGAGGAGGAGGUUUAUCGAAUUUUCGGCGGAUGCCUCCAAA

Columns and labels:
Details in all cases: with glucosamine-6-phosphate
glucosamine-6-phosphate [1] = variants of: B1; experiment: self-cleavage kobs at 40 uM GlcN6P; higher = faster cleavage; RNA array
Procedure, shortened: (§1)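 E. coli RNA polymerase transcribed barcoded ribozyme variants in situ on sequenced MiSeq chips, which were tracked via a hybridised Cy3 probe at 37 °C. Tiles were imaged over ~14 h after glucosamine-6-phosphate (40 μM to 10 mM) in HEPES/KCl/Mg(OAc)2 buffer was flowed in. Normalised per-tile medians were fit to one- or two-exponential decays for kobs, and kcat and KM came from weighted Michaelis–Menten fits.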

glucosamine-6-phosphate [2] = variants of: B1; experiment: self-cleavage kobs at 640 uM GlcN6P; higher = faster cleavage; RNA array
Procedure, shortened: as §1

glucosamine-6-phosphate [3] = variants of: B1; experiment: self-cleavage kobs at 10000 uM GlcN6P; higher = faster cleavage; RNA array
Procedure, shortened: as §1

glucosamine-6-phosphate [4] = variants of: B1; experiment: self-cleavage kobs at 160 uM GlcN6P; higher = faster cleavage; RNA array
Procedure, shortened: as §1

glucosamine-6-phosphate [5] = variants of: B1; experiment: self-cleavage kobs at 2500 uM GlcN6P; higher = faster cleavage; RNA array
Procedure, shortened: as §1

Row | Variant | self-cleavage kobs at 40 uM GlcN6P (glucosamine-6-phosphate [1]) | self-cleavage kobs at 640 uM GlcN6P (glucosamine-6-phosphate [2]) | self-cleavage kobs at 10000 uM GlcN6P (glucosamine-6-phosphate [3]) | self-cleavage kobs at 160 uM GlcN6P (glucosamine-6-phosphate [4]) | self-cleavage kobs at 2500 uM GlcN6P (glucosamine-6-phosphate [5])
1 | AUAAAAGCGCCAGAAUUACAGAAAUGUAGUUGACGAGGAGGAGGUUUUUCGAAUUUUCGGCUGAUGCCUCCAAA [C16U A48U G62U] | < 1e-05 s⁻¹ | < 1e-05 s⁻¹ | < 1e-05 s⁻¹ |  | 
2 | AUAAAAGCGCCAGAACUACAGAAAUGUAGUGGACGAGGUGGAGGUUUAUCGAAUUUUCGGUGGAUGCCUCCAAA [U31G A39U C61U] | < 1e-05 s⁻¹ |  |  |  | 
3 | AUAAAAGCGCCAGAACUACAGAAAUGUAGUUGACGAGGAGGAGGUUAAUCGAAUUCUCGGCGGAUGCCUGCAAA [U47A U56C C70G] | < 1e-05 s⁻¹ |  |  |  | 
4 | AUAAAAGCGUCAGAACUACAGAAAUGUACUUGACAAGGAGGAGUUUUAUAGAAUCUUCGGCGGUUGCCUCCAAA [C10U G29C G35A G44U C50A U55C A64U] | < 1e-05 s⁻¹ |  | < 1e-05 s⁻¹ |  | 
5 | AUAAAAGCGCGAGAACUACAGAAAUGUAGUUGACGAGGAGGAGGUAUAUCGAAUUUUCGGCGGAUGCCUCCAAA [C11G U46A] | < 1e-05 s⁻¹ |  | < 1e-05 s⁻¹ | < 1e-05 s⁻¹ | < 1e-05 s⁻¹
6 | AUAAAAGCGGCAGAACUACAGAAAUGUAGUUGACGAGGAGGAAGUUUAUCGAAUUUUCGGCUGAUGCCUCCAAA [C10G G43A G62U] | < 1e-05 s⁻¹ | < 1e-05 s⁻¹ |  |  | 
7 | AUAAAAGCGCCUGAACUACAGAAAUGUAGAUGACGAGGAGGAGGUUUAUCGAAUUUUCGGCGGAUGCCUUCAAA [A12U U30A C70U] | 0.000748 ± 0.00013 s⁻¹ |  | 0.0461 ± 0.017 s⁻¹ |  | 
8 | AUAAAAGCGCCAGAACUACAGAAAUGUAGUUGACGAGGAGGAGGUUUAUGGAUUUUUCGGCGUAUGCCACCAAA [C50G A53U G63U U69A] | 0.00027 ± 6.1e-05 s⁻¹ |  | 0.000127 ± 2.4e-05 s⁻¹ | 0.000207 ± 5.6e-05 s⁻¹ | 0.000121 ± 3.5e-05 s⁻¹
9 | AUAAAAGCGCCAGAACUACAGAAAUGUAGUUGACGAGGAGGAGGUUUAUCGCAUUUUCGGCCGAUGCCUCCAAA [A52C G62C] | < 1e-05 s⁻¹ | < 1e-05 s⁻¹ | < 1e-05 s⁻¹ | < 1e-05 s⁻¹ | < 1e-05 s⁻¹
10 | AUAAAAGUGCCAGAACUACAGAAAUGUAGUUGACGAGGCGGAGGUUUAUCGAAUUUUCGGCGGAUGCCUCCAAA [C8U A39C] | < 1e-05 s⁻¹ | < 1e-05 s⁻¹ | < 1e-05 s⁻¹ | < 1e-05 s⁻¹ | < 1e-05 s⁻¹
11 | AUAAACGGGCCAGAACUACAGAAAUGUAGUUGACGAGGAGGAGGUUUAUCGAAUUUUCGGCGGAUGCCUCCAAA [A6C C8G] | < 1e-05 s⁻¹ | < 1e-05 s⁻¹ | < 1e-05 s⁻¹ |  | < 1e-05 s⁻¹
12 | AUAAAAGCGCCAGAACUACAGAAAUGUAGUUGACGAGGAGGAGGUUUAUCGAAUUUUCGGCCGGUGCCUCCAAA [G62C A64G] | < 1e-05 s⁻¹ | < 1e-05 s⁻¹ | < 1e-05 s⁻¹ |  | 
13 | AUAAAGGCGCCAGAACUACAGAAAUGUAGUUGUCGAGGAGGAGGUUUAUCGAAUUUUGGGCGGAUGUCUCAAAA [A6G A33U C58G C67U C71A] | 5.47e-05 ± 2.5e-05 s⁻¹ | 0.000593 ± 0.00019 s⁻¹ |  | 9.68e-05 ± 2.9e-05 s⁻¹ | 0.000109 ± 4.9e-05 s⁻¹
14 | AUAAAAGCGCCAGAACUACAGAAAUGUAGUUGACGAGGAGGAGGUUUAUCGAAUUUUCGCAGGAUGCCUCCAAA [G60C C61A] | < 1e-05 s⁻¹ | < 1e-05 s⁻¹ | < 1e-05 s⁻¹ | < 1e-05 s⁻¹ | 
15 | AUAAAAGCGCCAGAACUACAGAAAUGUAGUUGCCGAGCAGGAGGUUUAUCGAAUUUUCGGCGGAUGCCUCCAAA [A33C G38C] | < 1e-05 s⁻¹ | < 1e-05 s⁻¹ |  | < 1e-05 s⁻¹ | < 1e-05 s⁻¹
16 | AUAAAAGGGCCAGAACUACAGAAAUGUAGUUGACGAGGAGGAGGUUUAUGGAGUUUUCGGCGGGUGCCUCCAAA [C8G C50G A53G A64G] | 0.000149 ± 6.6e-05 s⁻¹ |  |  |  | 
17 | AUAAAAGCGACAGAACUACAGAAAUGUAGUUGACGAGGAAGAGGUUUAUCGAAUUUUCGGCGGAUGCCUCCAAA [C10A G40A] | < 1e-05 s⁻¹ | < 1e-05 s⁻¹ | < 1e-05 s⁻¹ | < 1e-05 s⁻¹ | < 1e-05 s⁻¹
18 | AUAAAAGCGCCAGAACUACAGAAAUGUAGUUGUCGAGGAGGAGGUUUAUCCAAUUUUCGUCGUAUGCCUCCAAA [A33U G51C G60U G63U] | < 1e-05 s⁻¹ |  |  |  | 
19 | AUAAAAGCGCCAGAACUACAGAAAUGUAGUUGACGAGGAGGAGGUGUAUCGAAUUUUCGGCGCAUGCCUCCAAA [U46G G63C] | < 1e-05 s⁻¹ | < 1e-05 s⁻¹ | < 1e-05 s⁻¹ | < 1e-05 s⁻¹ | < 1e-05 s⁻¹
20 | AUAAAAGCUCCAGAACUACAGAAAUGUAUUUGACGAGGAGGGGGUUUAUCGAAUUUUCGGCGGAGGCCUCCAAA [G9U G29U A42G U65G] | < 1e-05 s⁻¹ |  | < 1e-05 s⁻¹ |  | 
21 | AUAAAAGCGUCAGAACUACAGAAAUGUAGUUGAGGAGGAGGAGGUUUAUCGAAUUUUUGGCGGAUGCCUCCAAA [C10U C34G C58U] | < 1e-05 s⁻¹ |  |  |  | 
22 | AUAAAAGCGCCAGAACUACAGAAAUGUAGUUGACGAGGAGGUGGUCUAUCGAAUUUUCGGCGGAUGCCUCCAAA [A42U U46C] | < 1e-05 s⁻¹ | < 1e-05 s⁻¹ |  | < 1e-05 s⁻¹ | 
23 | AUAAAAGAGACAGAACUACAGAAAUGUAGUUGAUGAGGAGGAGGUUUAUCGAAUUUUCGACGGAUGCCUCCAAA [C8A C10A C34U G60A] | < 1e-05 s⁻¹ |  |  |  | 
24 | AUAAAAGCGCCAGAACUACAGAAAUGUAGUUGACGAUGAGGAGGGCUAUCGAAUUUUCGGCGAAUGCAUCCAAA [G37U U45G U46C G63A C68A] | < 1e-05 s⁻¹ |  | < 1e-05 s⁻¹ |  | 
25 | AUAAAAGCGCCUGGACUACAGAAAUGUAAUUGACGAGGAGGAGGUUUAUCGAAUUUUCGGCGGAUGCCUCCAAA [A12U A14G G29A] | 0.00101 ± 0.00019 s⁻¹ |  | 0.00831 ± 0.0018 s⁻¹ |  | 
26 | AUAAAAGCUCCAGAACUACAGAAAUGUAGUUGACGAGGAGGAGGUUUAUCGAAUUUUCGGCGGCUGCCUCCAAA [G9U A64C] | < 1e-05 s⁻¹ | < 1e-05 s⁻¹ | < 1e-05 s⁻¹ | < 1e-05 s⁻¹ | 
27 | AUAAAAGCGCCAGAUCUACAGAAAUGUAGUUGACGAGGAGGAAUUUUAUCGAAUUUUCGGCAGAUGCCUCCAAA [A15U G43A G44U G62A] | < 1e-05 s⁻¹ |  | < 1e-05 s⁻¹ |  | 
